How the values were obtained:
[1] = tested on: C[C@H](C=O)[C@H]1CC[C@H]2[C@@H]3CCC4=CC(=O)CC[C@]4(C)[C@H]3CC[C@]12C; experiment: purified protein; details: 1 mM NAD+, 100 mM HEPES pH 7.5, 25 °C
O=Cc1ccccc1 [2] = experiment: purified protein; details: 1 mM NAD+, 100 mM HEPES pH 7.5, 25 °C
[3] = tested on: T1, C[C@H](C=O)[C@H]1CC[C@H]2[C@@H]3CCC4=CC(=O)CC[C@]4(C)[C@H]3CC[C@]12C; experiment: purified protein; type: biochemical, Pseudomonas putida; details: 1 mM NAD+, 100 mM HEPES pH 7.5, 25 °C
T1 construct: full-length, His tag (pET28a, NdeI/HindIII), E. coli BL21 LOBSTR

O=Cc1ccccc1 [4] = tested on: T2, O=Cc1ccccc1; experiment: purified protein; type: biochemical, Pseudomonas putida; details: 1 mM NAD+, 100 mM HEPES pH 7.5, 25 °C
T2 construct: full-length, His tag (pET28a, NdeI/HindIII), E. coli BL21 LOBSTR

[5] = biological target: steroid aldehyde dehydrogenase (Sad) from Caldimonas tepidiphilia (Caldimonas tepidiphilia); experiment: crystal structure; X-ray, 1.8 Å; sitting-drop vapor diffusion at 4 °C, 20 mg/mL Sad_(Ctepid), 40% MPD, 3% PEG 8000, 0.1 M sodium cacodylate pH 6.5, 10% glycerol; interface analysed with PISA

Substance	Km [1] [µM]	kcat [1] [s⁻¹]	kcat/Km [1] [M⁻¹ s⁻¹]	Km (O=Cc1ccccc1 [2]) [µM]	also measured
PpBADH (Pseudomonas putida; F400A)	4.35 ± 0.167	0.00284 ± 3.34e-05	653 ± 75.1	59.5 ± 2.59	
PpBADH (Pseudomonas putida; F400A/L125T)					Km [3]: 1.73 ± 0.0801 µM; kcat [3]: 0.0431 ± 0.000719 s⁻¹; kcat/Km [3]: 24900 ± 1230 M⁻¹ s⁻¹; Km (O=Cc1ccccc1 [4]): 40.97 ± 2.58 µM; kcat (O=Cc1ccccc1 [4]): 0.037 ± 0.000756 s⁻¹; kcat/Km (O=Cc1ccccc1 [4]): 903 ± 59.8 M⁻¹ s⁻¹
PpBADH (Pseudomonas putida; L125T)	18.94 ± 1.07	0.0291 ± 0.000667	1540 ± 36.8	3.18 ± 0.216	
PpBADH (Pseudomonas putida; Y121A)				700.4 ± 31.9	
SadCtest (Comamonas testosteroni)	1.93 ± 0.118	3.57 ± 0.0818			
steroid aldehyde dehydrogenase (Sad) from Caldimonas tepidiphilia (enzyme)					stoichiometry N [5]: 2

— PMC12410373, “Sad from Proteobacteria is a Structurally Distinct ALDH3 Enzyme Specialized for the Oxidation of Steroidal Aldehydes” (Biochemistry, 2025)
